Holding throughout (conditions): both partners purified
In assay [1] the target is T1, Shiga toxin 1 (Stx1) (Escherichia coli (STEC), strain not …, UniProt P08026;P69179).
T1 construct: source: bought: Tufts University School of Medicine; copies: 1 + 5
Nature of the assay: ELISA; […]; room temperature; in triplicate. (ELISA stands for enzyme-linked immunosorbent assay.)

A further assay deals with Stx2 toxin (Escherichia coli (STEC), strain not …, UniProt P09385;P09386). Briefly: ELISA; […]; room temperature; in triplicate.
Sequence of Stx2 toxin (P09386 whole entry, looked up, chain 1 of 2): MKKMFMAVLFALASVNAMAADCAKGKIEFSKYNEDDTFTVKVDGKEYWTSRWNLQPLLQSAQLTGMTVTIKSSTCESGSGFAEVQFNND
Sequence of Stx2 toxin (P09385 whole entry, looked up, chain 2 of 2): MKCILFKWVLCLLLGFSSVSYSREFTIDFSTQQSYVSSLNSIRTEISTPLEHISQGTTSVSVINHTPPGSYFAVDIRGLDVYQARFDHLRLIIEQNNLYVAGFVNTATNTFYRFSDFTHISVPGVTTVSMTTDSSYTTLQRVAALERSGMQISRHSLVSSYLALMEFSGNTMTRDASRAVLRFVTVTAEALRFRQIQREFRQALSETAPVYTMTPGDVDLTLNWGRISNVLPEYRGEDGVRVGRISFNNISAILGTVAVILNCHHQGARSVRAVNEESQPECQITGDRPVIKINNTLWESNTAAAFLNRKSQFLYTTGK
The target of assay [2] is T1, Shiga toxin 1 (Stx1). Nature of the assay: SPR; […]; HBS-EP pH 7.4; 25 °C; 30 uL/min; […]; Langmuir 1:1 model; BIAcore T200; in duplicate.

The values that follow come from publication PMC6698835 (Antibodies, 2018).

T1 sequence (P69179 whole entry, looked up, chain 1 of 2): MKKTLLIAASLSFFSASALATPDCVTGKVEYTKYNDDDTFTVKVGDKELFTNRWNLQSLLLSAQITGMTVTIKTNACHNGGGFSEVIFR
T1 sequence (P08026 whole entry, looked up, chain 2 of 2): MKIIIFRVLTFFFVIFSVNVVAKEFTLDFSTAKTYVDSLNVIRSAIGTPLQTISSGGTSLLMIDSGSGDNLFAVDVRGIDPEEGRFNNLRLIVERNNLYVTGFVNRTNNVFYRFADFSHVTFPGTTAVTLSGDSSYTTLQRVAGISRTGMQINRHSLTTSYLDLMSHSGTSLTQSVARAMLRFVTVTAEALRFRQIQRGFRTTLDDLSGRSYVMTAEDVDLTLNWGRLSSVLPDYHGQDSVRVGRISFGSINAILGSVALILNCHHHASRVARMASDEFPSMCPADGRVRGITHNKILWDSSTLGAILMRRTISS

B1: scFvStx1 (scFv, V domains shown)
VH: EVQLQQSGPELVKPGTSVKMSCKASGYTFTDYFIHWVKQSHGKSLEWIGYIYPKNDGNDYNQKFKGKATLTVDKSSSTGYMELRSLTSEDSAVYYCARSRGYYGALDYWGQGTSVTVSR
VL: DLQLTQSPATLSVNPGDSVSLSCRASQSIRNDLHWYQQKSHESPRLLIKSVSQSISGIPSRFSGSGSGTDFTLSINSVETEDFGMYFCQQSYSWPLTFGAGTK
notes: also called scFvStx1(II); new scFvStx1; source: E. coli BL21 (DE3) pLysS, periplasmic expression, purified (IMAC)
B1: the response in the assay with Shiga toxin 1 (Stx1) [1] was half-maximal at 600 nM (EC50). Further, the binding result in the assay with Stx2 toxin is reported as “binds”. Moreover, in the assay with Shiga toxin 1 (Stx1) [2], binding was put at a Kd of 226 nM.

What is called EC50 is the concentration at which the effect is half-maximal. A low value points to higher potency in that assay. What is called Kd is the concentration at which binding is half-saturated. Low readings indicate a tighter complex, high ones a looser complex.
